Test [1] deals with T1, free prostate-specific antigen (fPSA) (human, UniProt P07288 25-261).
T1 construct: In the IRMA, fPSA was spiked into female plasma and captured by mAb H117; also called hk3; human kallikrein 3
The test is described as follows: Time-resolved Eu fluorescence immunoassay: coat goat anti-human polyclonal, 5A10-Fab 15 ng/well, Eu-PSA titrated from about 0.15 to 20 ng/well [upper and lower panels].

The target in test [2] is T2, human glandular kallikrein 2 (hK2) (human, UniProt P20151 25-261). As to the kind of experiment: cell-based or functional assay.
Test [3] addresses T2, human glandular kallikrein 2 (hK2). The test is described as follows: method not stated (told in the Materials section of Example 10).

Results on three molecules are retold here after patent US20200138986A1 (FREDAX, published 2020).

T2 sequence (P20151 25-261 limits assumed): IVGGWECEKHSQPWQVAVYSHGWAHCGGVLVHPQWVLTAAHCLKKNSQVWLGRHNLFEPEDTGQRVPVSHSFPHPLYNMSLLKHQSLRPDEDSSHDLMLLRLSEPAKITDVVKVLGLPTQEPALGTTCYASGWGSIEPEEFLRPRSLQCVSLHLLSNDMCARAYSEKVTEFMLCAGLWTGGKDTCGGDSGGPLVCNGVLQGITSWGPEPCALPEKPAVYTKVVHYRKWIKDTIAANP
T1 sequence (P07288 25-261 limits assumed): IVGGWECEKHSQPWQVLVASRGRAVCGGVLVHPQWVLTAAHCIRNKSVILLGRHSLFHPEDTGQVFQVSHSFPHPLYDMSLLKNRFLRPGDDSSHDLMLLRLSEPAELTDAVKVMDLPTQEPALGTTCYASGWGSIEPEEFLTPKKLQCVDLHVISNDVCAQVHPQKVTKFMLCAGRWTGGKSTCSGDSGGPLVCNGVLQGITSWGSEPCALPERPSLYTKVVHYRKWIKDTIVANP

B1: 5A10-Fab (Fab, V domains shown)
VH: EVQLVESGPGILQPSQTLSLTCSFSGFSLSTTGMGVSWIRQPSGKGLEWLAHLYWDEDKRYNPSLKSRLTISEDSSRNQVFLKITSVGPADSATYYCARKGYYGYFDYWGQGTALTVSS
VL: DIVMTQSQKFMSTSVGDRVSVTCKASQNVNTDVAWYQQKPGQSPKALIFSTSYRSSGVPDRFTGSGSGTDFTLTITNVQSEDLAEYFCQQYSNYPLTFGAGTKVDLN
notes: also called exemplary 5A10-Fab; Fab fragment of anti-PSA antibody 5A10
On to B1, for which the binding result in test [1] is listed as “binds”.

B2: 111In-CHX-A''-DTPA-11B6 (antibody, V domains shown)
VH: DVQLQESGPGLVKPSQSLSLTCTVTGNSITSDYAWNWIRQFPGNRLEWMGYISYSGSTTYSPSLKSRFSITRDTSKNQFFLQLNSVTPEDTATYFCATGYYYGSGFWGQGTLVTVSS
VL: DIVLTQSPASLAVSLGQRATISCRASESVEYFGTSLMHWYRQKPGQPPKLLIYAASNVESGVPARFSGSGSGTDFSLNIQPVEEDDFSMYFCQQTRKVPYTFGGGTKLEIK
modifications: CHX-A''-DTPA chelator conjugated to the antibody and labelled with 111In; sites not stated
Turning to B2, in test [2], the “tumor uptake in hK2-expressing xenografts (LnCAP) against hK2-negative xenografts (DU145) at 48 hpi” value is more than 3 fold.

B3: mAb 11B6 (mouse monoclonal anti-hK2 antibody) (antibody, V domains shown)
VH: DVQLQESGPGLVKPSQSLSLTCTVTGNSITSDYAWNWIRQFPGNRLEWMGYISYSGSTTYSPSLKSRFSITRDTSKNQFFLQLNSVTPEDTATYFCATGYYYGSGFWGQGTLVTVSS
VL: DIVLTQSPASLAVSLGQRATISCRASESVEYFGTSLMHWYRQKPGQPPKLLIYAASNVESGVPARFSGSGSGTDFSLNIQPVEEDDFSMYFCQQTRKVPYTFGGGTKLEIK
notes: Whole mouse monoclonal antibody obtained from the University of Turku; also called m11B6; mouse mAb 11B6
For B3, the dissociation constant Kd in test [3] is approximately 1.2 nM.

The Kd is the concentration at which binding is half-saturated. Higher therefore signals lower affinity.
